The DeepSol protein solubility set

assay: soluble on expression in E. coli; label from the status in PepcDB or PDB records

| Sequence | soluble on expression in E. coli |
| --- | --- |
| MGSDKIHHHHHHMRYIDLAEMCIADISSGKLVKNSRMPSLRNFRQQHSISMTTALNCYQYLESLGWILARPQSGYFVCGQRMANEKPELVAFKSIMTDPKLPVVKPYYQHGNSSACAIDSAHNTSANHSVYQPANKDIVGPLGVARISTDFIPLDKLQNSFRRALKRQGSNISFYPDIQGEKILRDTLSSHFKSYDFHIPSDELLITNGCMDAIQTAIEICTDFGDAVAISSPCFNGILDMLAALGRKVVEIPSTEQGIDLVQLEQHMKSNQIKAGLFCTSHMNPQGISMTALQKQHLVNLAQTYKIPIIEDDVYIELAHGKVMPLPAKHWDKHGYILWCGSVSKTIAAGYRLGWCWPGRFTEQYLQKRKYCNQGVSSPVQLGLADFISNGDYAKHLKKLRVAIQQHTLSYQRYLTKNLPVASKISDPSGGFVLWIQVPNLNGRKLLALATEGNIDIRIGEQFSTRDLYQDYFRVNTGFMITEGNDKDTREEVDSQINKLMKLVKVASSERI | not soluble |
| MGSDKIHHHHHHMSAALSHWRRWPSVANYGKKRFDIHQSSLKKRQGLMTPHFFGFGSLVNTATHVYGNTRPARLEGWRRTWVRTPDRSMAFLSVTPAPGHVIEGLLAAVPNGDWAALDERETGYVRVDVTPQVAHDMAPAPQISLYQVPEESHDRNARDHKILLSYLDVVLRGYREVFGDTGAEAFMATTDGWDTPILNDRATPYYPRHQVMTPDEHALHDALIAEAGAQVLAGGE | not soluble |
| MGSDKIHHHHHHMSAELPLVFSVTSGKGGVGKTNMSVNIACCLSRMGKRVVLLDADLGLANVDVVLGLAPPRNLFHLFHEGADLGSILCEMPYGFRILPASSGVGEMLSLSTGQKLDLLEAMDVLEDSVDYLLVDTGAGINDNVLYFNIAAQERIVVLTPEPTSLTDAYALIKVMKLNHGVEHFKVLVNMAGDMKAAREVFSRLYKACDHFLSGVSLDLLGYVPRDRTVRRAVVEQTPFCVLDSRSPASLAVQKVAETVQTWDVSASLDGNIKFFWKKLLFR | not soluble |
| MGSDKIHHHHHHMSASSNRTIPVFQLYGETHQWPTPDLLHCESIAERSRLHDWHIRPHRHADLVHVLHIAHGDVNLTFEEGAQRLTGPLLIVVPAMTVHAFRFSRDVDGHIVTLAMPLARHIADTLHPQGQILARAAFYPLADQPERAPIATLVDQLDAEYRHPADGRDALLEALLNSLLVLASRRATRRQARPASRQHERGEAHLARFQQLIEAHYHQQPSIPEFAERLGISSAHLSAVCQRLAGRSAQQLLHERVLLEAKRHLTYTNMTIGQVAERLGFKEPAYFTRFFKRHVACSPKEFRQRQA | not soluble |
| MGSDKIHHHHHHMSCIIPNIYSQPTDTNLWNILLSSGIPRHYQKGEFVFEKDQPSNGLICLKKGKVKVSSFFSEGSEKIFGILVAPALFGETETLDQGPRMVSATALTHVEIVAISGNKTKELIYTYPDIALSIIQSIGVKLRWTTLQAEDLSTQKIEYRLARLLLDFKHYGIFTSKNNDNCLMITHEELAHFIGTARSKVTTYLNEFAHKGLIRLRRGEIRILDTAGLNKYKYTHKSQA | not soluble |
| MGSDKIHHHHHHMSDVKGKNMTKKKPVLKRFNYRLNKLHVKNLKGIKDFTLNFEKDKLVTGIVGINGSGKSTLIHALACAFKPIGKATSKDFNRLSHFFTPNKDASWEGSEFEIEFEFDELTIKPNSEPTKKLINHTEVYSKKQGKKVSRWLPIYGRRHERESAYIGLHDLATLSEDKNAGRYKEYETEDLAHEASDKIKEDLVYILGRNYNRLTTCLVKQKDKVHTLFGLVFNGVEYSEHSMGAGEKRLLTILSALHNPKLAKGGLLLIDEIDVLLHGMAFKRLIERIIKRANENKIEVIFSTHRETIIDFKNDLLIYGVLNTGKGVIPMPHTHPQVMQQLTGVRTVPIEIYVEDDLATSVIETLLYQKHATHYVNITKFGTWSNAFAILAGKILMDSDISETLCVLDGDVCNTIEERTSECQRHLNGDDKNEHRQSMLNHIVEFKLANIAPQGSGGSPEYNIKIMFESIESDDPRVVELQRYSREMQGLEDWHVYFDILAETSGIRTARDKVLEAISETGQWNDYIVEISNWLDEKLKIYLPVRVQEEENLVTV | not soluble |
| MGSDKIHHHHHHMSEDIFDAIIVGAGLAGSVAALVLAREGAQVLVIERGNSAGAKNVTGGRLYAHSLEHIIPGFADSAPVERLITHEKLAFMTEKSAMTMDYCNGDETSPSQRSYSVLRSKFDAWLMEQAEEAGAQLITGIRVDNLVQRDGKVVGVEADGDVIEAKTVILADGVNSILAEKLGMAKRVKPTDVAVGVKELIELPKSVIEDRFQLQGNQGAACLFAGSPTDGLMGGGFLYTNENTLSLGLVCGLHHLHDAKKSVPQMLEDFKQHPAVAPLIAGGKLVEYSAHVVPEAGINMLPELVGDGVLIAGDAAGMCMNLGFTIRGMDLAIAAGEAAAKTVLSAMKSDDFSKQKLAEYRQHLESGPLRDMRMYQKLPAFLDNPRMFSGYPELAVGVARDLFTIDGSAPELMRKKILRHGKKVGFINLIKDGMKGVTVL | not soluble |
| MGSDKIHHHHHHMSELTDLLLQGPRSAPELRQRLAISQATFSRLVAREDRVIRFGKARATRYALLRPYRGIERIPVWRVDDTGKAHKFADIRLCWPQGSCLVTGADGDEQWFDGLPWYLTDLRPQGFLGRAWGRKLAAQLNLTDDIRLWQEEDVLYALTVFNGEYTGGWLVGEGNYQRWITAQHPAEIPLDQKLTHYEQLASDALAGEIVGSSAGGEQPKFTYYAQTPSGNKHVLVKFTVPQQTAVSQRWGDLLIAESIAAQILRDGGIHAIESTVLVTSNRQVFLEAERFDCKGNDGRLPIVSLEAVQSEFISSPGSWPQAMRRLCEQQLVTHQSVAQTEVIWAFGRLIANSDMHAGNLSFYLSEPPFALTPVYDMLPMVYAPNSAGMLRDAAIEVKFDLNVSKSAWLTAIPLAQQFWQTVARDPRISEAFRHIAQEMPEKIRQIEEKVARMGG | not soluble |
| MGSDKIHHHHHHMSESEYKIADGSGKFLQAVKDGRRMKDAQWSKGRILLSNKRIVLAGSEGKRNLPLSEVQGLSGRHDVNQTVAKVGNYVSIRMTNESVMLVSLGDNTETFESKLYGALLDQTELQVKHPAVEGGVVTDEQFERARIKVDESELSVAMSNGSFVSVELDDVGSAEAASLEVNGDTKPVLKVEHTVNRDTSVQTYFATDSHTASILESLLTKEAEKSQGSVELSETEKRVLMALYSGVSSFEIPDFLGMDVDEVESIFERLIEVDVLEEVRKRREVTMKTRGRNIASEAINEE | not soluble |
| MGSDKIHHHHHHMSETTGLQLRSLIKASGDLEVSLVPVSIPEPGPDEVVVRVEATPINPSDLGLLFGAADMSSAKASGTPDAPVITAKVPEAAMKAMAGRLDESMPVGNEGAGTVIKAGSSDAAQALLGKTVAMIGGAMYAQYRLIKAADCLKLQDGTTAAEGASCFVNPLTALGMTETMKREGHKALVHTAAASNLGQMLNRICLKDGIDLVNIVRSEAQAKLLREIGAKYVVDSTAPTFLDDLTEALVKTGATIAFDAIGGGRLAGQILGCMEAAIGKTATGPYSRYGSNVLKQVYIYGSLDTKPTEIVRNFGFAWAAGGWLLFPFLQKIGAADAAKLRARVAAEIKTTFASRYTKVVSLKEALTLDAIAIYNKRATGEKYLIDPTK | not soluble |
| MGSDKIHHHHHHMSFFPGPDPLAGDKPACDAIEHLIIPRTSDIGGLQVRRALPTAKRRLVGPFIFFDRMGPALLRAGQAIDVRPHPHIGLSTVTYLFDGEIKHRDSLGTEMVIRPGDVNLMTAGRGIVHSERSPENQRGHERSLSGLQTWLALPDAMEEIDPVFAHTEERMLPHLADGGVRARVVIGQFEGAASPVSTFTDTIYVDLMIEPGKSAPFAANWEERALYILSGEAIIAGDHFDNNQLLVFRPGDEITITAGPAGCHVMLFGGAALGSPRHIWWNFVSSSKERIDKAKEEWRTGRFDIVPGDEEEFIPLPAS | not soluble |
| MGSDKIHHHHHHMSFKSSIAKMAGKSSYWFLHTFRSGGSSLPGKITTKIDPTILKDLGKDYDVIVITGTNGKTLTTALTVKVLRQKFDHVLTNPTGSNMEQGIVTTFLTDHKSKNGKNIAILEVDEANVIKVTQYIKPLAFVFTNIFRDQMDRYGEIYTTYRKILDGVKLAPEATIIANGDMPIFNSVDLPNPVVYYGFNNQPDGEMKADPNTDGVVCPRCEHIIHYKFISYSNQGKYYCPNCGWERPELTYQLTQITKLTPNLSKFFIDASNFTLHIGGLYNVYNALAAYSVGKFMGVPTSSIQKALNDPDERVFGRQEQINVDGKEITIVLVKNPVGLNQVIDMVGTESEPFSFVGLLNANYADGIDTSWIWDGNFEKLTQMPIQQYMTGGERYKDITFRLKVAGIEDNQLWTYDNLKDAVSNIKNLPTKRVYVFATYTAMLQLRKQLATEGYIKEGI | not soluble |
| MGSDKIHHHHHHMSGPAGLIVRMDGFNLPAGYLASDEARAISFAYDDRYIAAGGPPLSLSMPLEQVSFGDVTARAFFDNLLPENDQMQRVMDREGLARDDIVGLLSHLGADCSGAISCLPIGADPIKVPGVLSEDYELLAPGAIAEIARSLAERQRLPDTITDPSPVAGVQRKIALTHTPQGFAKPRPGRKVPTTHILKVPETRLRRDARLEAAAARLASALGLDVSIPEAIVIDGVDALLITRFDRVVRDGVVYRLHQEDFAQAMGLPATLKYQRNGAPGRQFDAQAIARVLDQTEAPALSRTAFLSATIFNLLIGNTDNHAKNHGLLYRQGRAPILAPLYDLLPSRMNLDFNDQLSFNIGAADHPDAITFDDMMAFFEVFGMRRAAAARFIENVIKPMIEALERATLGLAGERLKDMDDLIGRETEQLVEVLGLDVAVRERDYYPKVRHALAPS | not soluble |
| MGSDKIHHHHHHMSGTAEVNPITVDVYLDITVENISTLKDLTVKFDNYDEDLHYVKEVTDNSVKVDGIIPGIYSVTVSGTAIDTENNEYYINGNSVNAALFKHGSALNIEVQGLKVSPLIFKEIYYCGSRPEKGGVYFRDQFYEIYNNSADILYLDGIYFANLTPGTATTKLPIWPEADGNNYAYGERVWKFPGNGTEYPLAPGESCIISQFAANHQLDIYNPQSPIDGSSSEFEFNMNNPNFPDQAAYDMQHVFYQGKAEMGSIPQYLTSVFGGAYVIFRVPEGEAWDPVNDENMKTTDLSKPNSNVYYAKIPIKYVLDAVEAVNNESKMNAKRVPGVLDAGITWVGATYCGLGIARKLSTDEEGNPIIREETGTYIYQDTNNSTDDFERGVVPVMRRNGAKMPSWNHTL | not soluble |
| MGSDKIHHHHHHMSHEVDPRVDKTRRRLRQALITLLQTETVDNISVQKLTSTAAVTRGTFYLHYKDKPAFVDQALDDLVSELFETAIVTVSVGDIMTNPADPLQRVHVFSLSKALSYISQHAEAFETLLLDQRQLAVNQRINQQMTTWMTKFHRDFQDQFADLEVPVSIQIAYYVSATVGLITDWLANDMIYTPHYLTKCIKKMHHLMTVGSISFTDFFVK | not soluble |
| MGSDKIHHHHHHMSHGAGEPYFLTEMSDMAVAGCHVMAKPGGAICNIDCTYCFYLEKEALYPERNKNWRMSDETLEQFIRQHIAAQSGDRIDFAWQGGEPTMMGLPFFRRVVALCEKYGDGRKITHALQTNGILVNDEWARFFAEQHFLIGLSIDGPASLHNHYRFNRAGKGTHEQVVAAMARLKAHHVDFNTLTVVGKHNVGHAADVYEFLLAAGSRFIQFIPLVERMSTDNSSVLNLVMPGESAATLAPWTVPSWQYGEFLNQIFDIWVRRDVDRVYVQMFDVALAAWTAQQPVLCVHSETCGHAFALESNGDLYNCDHFVYPEHLLGNIHQHSIKALNNSERAIAFGEAKRETLTADCRRCDYRFVCHGGCPKHRFAVSPSGHPAHNYLCAGYKHFFQHVTPYMNVWRELLAQGYPMASIMRWLAQDARKDTGAVSRNHPCPCGSGKKYKKCCGKA | not soluble |
